Laboratory results as given in US12064464B2, “Plantaricin NC8 alpha beta markedly enhances the effects of antibiotics” (priority 2018, dated 2024).
“Also recorded” adds a separate entry of the source. Like-named read-outs stand apart in the source and are kept apart here.

Experiments:
Enterococcus faecium = experiment: Broth microdilution MIC/MBC; format: cell-based; conditions: for MBC / MIC: peptide alone
Description: (§1) Staphylococcus aureus CCUG 35601 (MRSA, Culture Collection, University of Gothenburg) and Staphylococcus aureus ATCC 29213 (MSSA, ATCC, Manassas, VA). Staphylococcus epidermidis ATCC 12228 (ATCC, Manassas, VA), RP62A, N15 and 10 clinical isolates of Staphylococcus epidermidis that have previously been characterized. Isolated Escherichia coli, Enterococcus faecium (including VRE), Pseudomonas aeruginosa, Klebsiella pneumoniae, Enterobacter spp and Acinetobacter baumannii were obtained from Orebro University hospital. Isolated Streptococcus mutans, Streptococcus constellatus and Streptococcus anginosus were obtained from Malmo University. The bacteria were grown on Luria-Bertani (LB) agar plates, supplemented with 5% defibrinated horse blood, and incubated at 37° C. overnight. Single colonies were inoculated into 5 ml of LB broth and incubated on a shaker (300 rpm) at 37° C. overnight. The bacterial concentration was determined by viable count and adjusted to correlate with approximately 10^9 CFU/ml.
(§2) The broth microdilution method was used to determine minimal inhibitory concentration (MIC) and minimal bactericidal concentration (MBC). Two-fold serial dilutions of the peptides were used and the final concentrations ranged from 0.097-50 μM. […] The effect of bacteriocin-antibiotic combinations was accomplished by using the same concentration series of antibiotics with a constant concentration of PLNC8 αβ (3.1 μM) in all the wells. […] All experiments were repeated at least three times.

Escherichia coli = experiment: Broth microdilution MIC/MBC; format: cell-based; conditions: for MBC / MIC: peptide alone
Description: as §1, §2

Pseudomonas aeruginosa = experiment: Broth microdilution MIC/MBC; format: cell-based; conditions: for MBC / MIC: P. aeruginosa, peptide alone
Description: as §1, §2

[1] = system: antibiotic resistant bacteria; experiment: Combination of PLNC8 αβ with antibiotics, summary over tested bacteria; format: cell-based; conditions: wide range of antibiotics
Protocol: as §2

[2] = system: S. epidermidis ATCC 12228; experiment: Sytox Green uptake (membrane permeabilization); format: cell-based, Staphylococcus epidermidis; conditions: 5 μM
Protocol: (§3) The fluorescent dye Sytox® Green, which can only cross damaged membranes and fluoresce upon binding to nucleic acids, was used to study the antimicrobial activity of PLNC8 αβ on S. epidermidis, S. aureus (MSSA, MRSA) and Streptococcus spp. The bacteria were washed and resuspended in Krebs-Ringer Glucose buffer (KRG) (120 mM NaCl, 4.9 mM KCl, 1.2 mM MgSO4, 1.7 mM KH2PO4, 8.3 mM Na2HPO4, and 10 mM glucose, pH 7.3) and incubated in the presence or absence of different combinations of PLNC8 αβ in 96-well microtiter plates for 2 min. Images were captured with Olympus BX41 at 40× magnification.

[3] = system: Streptococcus spp (S. mutans, S. constellatus, S. anginosus); experiment: Sytox Green uptake (membrane permeabilization); format: cell-based; conditions: 5 μM, 2 min
Protocol: as §3

[4] = system: S. epidermidis RP62A biofilms; experiment: Bacterial biofilm disruption; format: cell-based, Staphylococcus epidermidis; conditions: 1 h
Protocol: S. epidermidis RP62A was inoculated into 5 ml of LB broth and incubated on a shaker at 37° C. overnight. The bacterial culture was diluted 1:100 into fresh media and 100 μl of bacterial suspension per well was added in a 96-well microtiter plate and incubated statically at 37° C. for 20 h. The wells were washed three times by submerging the plate into a container with distilled water to remove unattached cells. Fresh LB media was added to each well (100 μl) followed by addition of the peptides in different concentrations. The plate was incubated statically for 1 h. Detached material in the wells were transferred to a new microtiter plate for absorbance measurements at 620 nm. The remaining attached biofilms were stained with 0.1% crystal violet for 15 min before the plate was washed four times in distilled water as mentioned above and allowed to dry at room temperature for 2 h. The crystal violet was solubilized in 30% acetic acid for 15 min and the absorbance quantified at 550 nm. Each experiment, with three replicates, was repeated three times.

HaCaT cells = experiment: Scratch assay and ELISA on keratinocytes; format: cell-based, human; conditions: uninfected cells, 24 h
Protocol: Human keratinocytes (HaCaT) were cultured in Dulbecco's modified Eagle medium (DMEM, Fisher Scientific, New York, USA) supplemented with 10% FBS (FBS, Invitrogen Ltd, Paisley, UK) incubated in a stable environment at 95% air, 5% CO2 and 37° C. The cells were used at passages 1-20.
HaCaT cells were cultured overnight in a 24-well plate at a seed-count of 2×10^5 cells per well. […] Co-stimulation was performed by infection of human keratinocytes, in the presence or absence of PLNC8 αβ, for 24 h, or infection of the cells for 1 h followed by addition of different concentrations of PLNC8 αβ for 6 h. Furthermore, infection of keratinocytes, with or without PLNC8 αβ, were monitored in real-time for 72 hours using IncuCyte Live-cell Analysis System. Bacterial load was quantified by measuring the fluorescence of green fluorescent protein (GFP) and cell viability was determined by measuring the fluorescent dye Draq7 that stains nuclei of dead cells.
ELISA was performed on supernatants retrieved from human keratinocytes that were exposed to MSSA and PLNC8 αβ. The levels of CXCL8 (Human IL-8 ELISA MAX Deluxe, Nordic Biosite, Sweden) and IL-6 (Human IL-6 ELISA MAX Deluxe, Nordic Biosite, Sweden) were quantified according to the manufacturer's instructions.

S. epidermidis = experiment: Aggregation and ATP release; format: cell-based, Staphylococcus epidermidis
Protocol: Aggregation and extracellular release of ATP were used to study the effects of PLNC8 αβ on the bacteria. ATP was registered using a luciferin/luciferase bioluminescence assay (Sigma, St. Louis, Mo, USA) in bacterial suspensions (2.5×10^8 CFU/ml). The bacteria were exposed to different concentrations of PLNC8 αβ, and real-time changes in light transmission and bioluminescence were recorded in a Chronolog lumi-aggregometer (Chrono-Log, Haverton, PA, USA) for 30 min. The levels of ATP were calculated based on the bioluminescence signals recorded in response to known concentrations of ATP.

Porphyromonas gingivalis = conditions: references 1, 2; cited from earlier work
[5] = Vancomycin resistant E. faecium (VRE)
[6] = ESBL-producing E. coli, first isolate
[7] = ESBL-producing E. coli, second isolate
[8] = Non-ESBL E. coli, first isolate
[9] = Non-ESBL E. coli, second isolate

B1: PLNC8 αβ: two-peptide class IIb bacteriocin of L. plantarum NC8: PLNC8 α (SEQ ID NO 1) with PLNC8 β (SEQ ID NO 2) (peptide)
alpha: DLTTKLWSSWGYYLGKKARWNLKHPYVQF
beta: SVPTSVYTLGIKILWSAYKHRKTIEKSFNKGFYH
modifications: Lactobacillus plantarum NC8
For B1, the “effect of peptide alone on Enterococcus faecium” value (Enterococcus faecium) was “permeabilized and killed”, the “effect of sub-MIC peptide on antibiotics” value (Enterococcus faecium) was “significantly enhanced the effects of different antibiotics” and the MBC (Enterococcus faecium; E. faecium, first isolate) was 6.25 µM. For the same molecule, the MIC (Enterococcus faecium; E. faecium, first isolate) was 6.25 µM, the MBC (Enterococcus faecium; E. faecium, second isolate) was 6.25 µM and the MIC (Enterococcus faecium; E. faecium, second isolate) was 3.1 µM. For the same molecule, the MBC (Enterococcus faecium; [5]) was 25 µM, the MIC (Enterococcus faecium; [5]) was 3.1 µM and the “effect of peptide alone on Enterococcus faecium” value (Enterococcus faecium; listed as PLNC8αβ) was “both inhibitory and bactericidal”. The “effect of peptide alone on Escherichia coli” value (Escherichia coli) was “permeabilized and killed”, the “effect of sub-MIC peptide on antibiotics” value (Escherichia coli) was “significantly enhanced the effects of different antibiotics” and the MBC (Escherichia coli; [6]) was over 50 µM. It also gave an MIC (Escherichia coli; [6]) of over 50 µM, an MBC (Escherichia coli; [7]) of over 50 µM and an MIC (Escherichia coli; [7]) of over 50 µM. For the same molecule, the MBC (Escherichia coli; [8]) was over 50 µM, the MIC (Escherichia coli; [8]) was over 50 µM and the MBC (Escherichia coli; [9]) was over 50 µM. The MIC (Escherichia coli; [9]) was over 50 µM, the “effect of peptide alone on Escherichia coli” value (Escherichia coli; listed as PLNC8αβ) was “did not affect the growth; also recorded: does not affect the growth” and the “effect of peptide alone on Pseudomonas aeruginosa” value (Pseudomonas aeruginosa) was “permeabilized and killed”. The “effect of sub-MIC peptide on antibiotics” value (Pseudomonas aeruginosa) was “enhanced the effects of different antibiotics”, the MBC (Pseudomonas aeruginosa; first isolate) was over 50 µM and the MIC (Pseudomonas aeruginosa; first isolate) was over 50 µM. For the same molecule, the MBC (Pseudomonas aeruginosa; second isolate) was over 50 µM, the MIC (Pseudomonas aeruginosa; second isolate) was over 50 µM and the “effect of peptide alone on Pseudomonas aeruginosa” value (Pseudomonas aeruginosa; listed as PLNC8αβ) was “did not affect the growth; also recorded: does not affect the growth”. The “enhancement of the effects of antibiotics” value [1] was 2-130 fold, the “perturbation of the plasma membrane of S. epidermidis” value [2] was “equally rapid (2 min)” and the “relative susceptibility of Streptococcus species” value [3] was “S. constellatus and S. anginosus were more susceptible to PLNC8 αβ than S. mutans”. For the same molecule, the disruption of biofilms [4] was “efficiently disrupted the biofilms and killed the bacteria”, the “IL-6 and CXCL8” value (HaCaT cells) was “not altered” and the “wound healing (scratch assay)” value (HaCaT cells) was “promoted wound healing in vitro”. For the same molecule, the “release of ATP (bacterial lysis)” value (S. epidermidis) was “dose-dependent release of ATP”, the aggregation of bacteria (S. epidermidis; low concentrations) was “bacteria aggregates when exposed to low concentrations” and the “activity against Porphyromonas gingivalis” value (Porphyromonas gingivalis) was “efficient against the periodontal pathogen Porphyromonas gingivalis”.
